According to PMC7954794, “Protein context shapes the specificity of SH3 domain-mediated interactions in vivo” (Nature Communications, 2021):

Test system: PPIs identified as affected by the SH3 domain deletions
Assay: Liquid DHFR-PCA low-throughput validation of PPIs affected by SH3 deletion (Fig. S1D-E)
Type: cell-based, Saccharomyces cerevisiae
Conditions: label = prey, liquid DHFR-PCA, prey _1 = lost, _2 = gained in screen
Outline: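 Yeast diploids from DHFR-PCA mating grown 48 h in synthetic complete MSG medium pH 6.0 with NAT and HPH, normalized to 1 OD and diluted to 0.1 OD in liquid PCA selection medium. Growth followed by OD every 15 min for 72 h at 30 °C.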

B1: YDL225W_2 (protein, UniProt Q07657 2-551, looked up)
Seventh homolog of septin 1: STASTPPINLFRRKKEHKRGITYTMLLCGPAGTGKTAFANNLLETKIFPHKYQYGKSNASISSNPEVKVIAPTKVVSFNSKNGIPSYVSEFDPMRANLEPGITITSTSLELGGNKDQGKPEMNEDDTVFFNLIMTHGIGENLDDSLCSEEVMSYLEQQFDIVLAEETRIKRNPRFEDTRVHVALYFIEPTGHGLREVDVELMKSISKYTNVLPIITRADSFTKEELTQFRKNIMFDVERYNVPIYKFEVDPEDDDLESMEENQALASLQPFAIITSDTRDSEGRYVREYPWGIISIDDDKISDLKVLKNVLFGSHLQEFKDTTQNLLYENYRSEKLSSVANAEEIGPNSTKRQSNAPSLSNFASLISTGQFNSSQTLANNLRADTPRNQVSGNFKENEYEDNGEHDSAENEQEMSPVRQLGREIKQENENLIRSIKTESSPKFLNSPDLPERTKLRNISETVPYVLRHERILARQQKLEELEAQSAKELQKRIQELERKAHELKLREKLINQNKLNGSSSSINSLQQSTRSQIKKNDTYTDLASIASGRD
- Ratio (Deletedscore / WTscore) (bait BZZ1-2): 1.566
- Ratio (Deletedscore / WTscore) (bait HOF1): 1.663

B2: YHR064C_2 (protein, UniProt P38788 1-538, looked up)
Ribosome-associated complex …: MSSPVIGITFGNTSSSIAYINPKNDVDVIANPDGERAIPSALSYVGEDEYHGGQALQQLIRNPKNTIINFRDFIGLPFDKCDVSKCANGAPAVEVDGKVGFVISRGEGKEEKLTVDEVVSRHLNRLKLAAEDYIGSAVKEAVLTVPTNFSEEQKTALKASAAKIGLQIVQFINEPSAALLAHAEQFPFEKDVNVVVADFGGIRSDAAVIAVRNGIFTILATAHDLSLGGDNLDTELVEYFASEFQKKYQANPRKNARSLAKLKANSSITKKTLSNATSATISIDSLADGFDYHASINRMRYELVANKVFAQFSSFVDSVIAKAELDPLDIDAVLLTGGVSFTPKLTTNLEYTLPESVEILGPQNKNASNNPNELAASGAALQARLISDYDADELAEALQPVIVNTPHLKKPIGLIGAKGEFHPVLLAETSFPVQKKLTLKQAKGDFLIGVYEGDHHIEEKTLEPIPKEENAEEDDESEWSDDEPEVVREKLYTLGTKLMELGIKNANGVEIIFNINKDGALRVTARDLKTGNAVKGEL
- Ratio (Deletedscore / WTscore) (bait BZZ1-2): 1.071

B3: YBL071W-A_2 (protein, UniProt Q3E840 1-82, looked up)
Diphthamide biosynthesis …: MSTYDEIEIEDMTFEPENQMFTYPCPCGDRFQIYLDDMFEGEKVAVCPSCSLMIDVVFDKEDLAEYYEEAGIHPPEPIAAAA
- Ratio (Deletedscore / WTscore) (bait ABP1): 1.188

B4: YIL033C_2 (protein, UniProt P07278 2-416, looked up)
cAMP-dependent protein kinase …: VSSLPKESQAELQLFQNEINAANPSDFLQFSANYFNKRLEQQRAFLKAREPEFKAKNIVLFPEPEESFSRPQSAQSQSRSRSSVMFKSPFVNEDPHSNVFKSGFNLDPHEQDTHQQAQEEQQHTREKTSTPPLPMHFNAQRRTSVSGETLQPNNFDDWTPDHYKEKSEQQLQRLEKSIRNNFLFNKLDSDSKRLVINCLEEKSVPKGATIIKQGDQGDYFYVVEKGTVDFYVNDNKVNSSGPGSSFGELALMYNSPRAATVVATSDCLLWALDRLTFRKILLGSSFKKRLMYDDLLKSMPVLKSLTTYDRAKLADALDTKIYQPGETIIREGDQGENFYLIEYGAVDVSKKGQGVINKLKDHDYFGEVALLNDLPRQATVTATKRTKVATLGKSGFQRLLGPAVDVLKLNDPTRH
- Ratio (Deletedscore / WTscore) (bait CYK3): 1.015

B5: YML035C_2 (protein, UniProt P15274 1-810, looked up)
AMP deaminase: MDNQATQRLNDLSLEPAPSHDEQDGSGLVIDIDQRKIGDEQAGVVVDDETPPLEQQDSHESLAADSRNANFSYHENQQLLENGTKQLALDEHDSHSAILEQPSHSTNCSSSNIAAMNKGHDSADHASQNSGGKPRTLSASAQHILPETLKSFAGAPVVNKQVRTSASYKMGMLADDASQQFLDDPSSELIDLYSKVAECRNLRAKYQTISVQNDDQNPKNKPGWVVYPPPPKPSYNSDTKTVVPVTNKPDAEVFDFTKCEIPGEDPDWEFTLNDDDSYVVHRSGKTDELIAQIPTLRDYYLDLEKMISISSDGPAKSFAYRRLQYLEARWNLYYLLNEYQETSVSKRNPHRDFYNVRKVDTHVHHSACMNQKHLLRFIKHKLRHSKDEKVIFRDGKLLTLDEVFRSLHLTGYDLSIDTLDMHAHKDTFHRFDKFNLKYNPIGESRLREIFLKTNNYIKGTYLADITKQVIFDLENSKYQNCEYRISVYGRSLDEWDKLASWVIDNKVISHNVRWLVQIPRLYDIYKKTGIVQSFQDICKNLFQPLFEVTKNPQSHPKLHVFLQRVIGFDSVDDESKVDRRFHRKYPKPSLWEAPQNPPYSYYLYYLYSNVASLNQWRAKRGFNTLVLRPHCGEAGDPEHLVSAYLLAHGISHGILLRKVPFVQYLYYLDQVGIAMSPLSNNALFLTYDKNPFPRYFKRGLNVSLSTDDPLQFSYTREPLIEEYSVAAQIYKLSNVDMCELARNSVLQSGWEAQIKKHWIGKDFDKSGVEGNDVVRTNVPDIRINYRYDTLSTELELVNHFANFKRTIEEK
- Ratio (Deletedscore / WTscore) (bait HSE1): 1.186
- Ratio (Deletedscore / WTscore) (bait LSB3): 1.062

B6: YNL229C_2 (protein, UniProt P23202 2-354, looked up)
Transcriptional regulator URE2: MNNNGNQVSNLSNALRQVNIGNRNSNTTTDQSNINFEFSTGVNNNNNNNSSSNNNNVQNNNSGRNGSQNNDNENNIKNTLEQHRQQQQAFSDMSHVEYSRITKFFQEQPLEGYTLFSHRSAPNGFKVAIVLSELGFHYNTIFLDFNLGEHRAPEFVSVNPNARVPALIDHGMDNLSIWESGAILLHLVNKYYKETGNPLLWSDDLADQSQINAWLFFQTSGHAPMIGQALHFRYFHSQKIASAVERYTDEVRRVYGVVEMALAERREALVMELDTENAAAYSAGTTPMSQSRFFDYPVWLVGDKLTIADLAFVPWNNVVDRIGINIKIEFPEVYKWTKHMMRRPAVIKALRGE
- Ratio (Deletedscore / WTscore) (bait HSE1): 0.8445

B7: YBR177C_2 (protein, UniProt P38295 1-451, looked up)
Medium-chain fatty acid ethyl …: MSEVSKWPAINPFHWGYNGTVSHIVGENGSIKLHLKDNKEQVDFDEFANKYVPTLKNGAQFKLSPYLFTGILQTLYLGAADFSKKFPVFYGREIVKFSDGGVCTADWLIDSWKKDYEFDQSTTSFDKKKFDKDEKATHPEGWPRLQPRTRYLKDNELEELREVDLPLVVILHGLAGGSHEPIIRSLAENLSRSGRFQVVVLNTRGCARSKITTRNLFTAYHTMDIREFLQREKQRHPDRKLYAVGCSFGATMLANYLGEEGDKSPLSAAATLCNPWDLLLSAIRMSQDWWSRTLFSKNIAQFLTRTVQVNMGELGVPNGSLPDHPPTVKNPSFYMFTPENLIKAKSFKSTREFDEVYTAPALGFPNAMEYYKAASSINRVDTIRVPTLVINSRDDPVVGPDQPYSIVEKNPRILYCRTDLGGHLAYLDKDNNSWATKAIAEFFTKFDELVV
- Ratio (Deletedscore / WTscore) (bait LSB3): 1.519

B8: YFR040W_2 (protein, UniProt P43612 1-1002, looked up)
SIT4-associating protein …: MSFWPFGQNLNHSNINKILDEYFHVLHELERINPSVGKAIPAIFNNVQERGTSDSLDSIPEEYSHGDEVKTARGDQKSRFEKDDQQERYEKEEEERSMNSSESSTTSFSSGSTSKTDLDEEDISNATAPMMVTTKNLDNSFIERMLVETELLNELSRQNKTLLDFICFGFFFDKKTNKKVNNMEYLVDQLMECISKIKTATTVDLNNLIDYQEQQQLDDSSQEDVYVESDTEQEEEKEDDNNSNNKKRRKRGSSSFGNDDINNNDDDDDANEDDESAYLTKATIISEIFSLDIWLISESLVKNQSYLNKIWSIINQPNFNSENSPLVPIFLKINQNLLLTRQDQYLNFIRTERSFVDDMLKHVDISLLMDFFLKIISTDKIESPTGIIELVYDQNLISKCLSFLNNKESPADIQACVGDFLKALIAISANAPLDDISIGPNSLTRQLASPESIAKLVDIMINQRGAALNTTVSIVIELIRKNNSDYDQVNLLTTTIKTHPPSNRDPIYLGYLLRKFSNHLSDFFQIILDIENDANIPLHENQLHEKFKPLGFERFKVVELIAELLHCSNMGLMNSKRAERIARRRDKVRSQLSHHLQDALNDLSIEEKEQLKTKHSPTRDTDHDLKNNNGKIDNDNNDNDDESDYGDEIDESFEIPYINMKQNIKLRTDPTVGDLFKIKLYDTRIVSKIMELFLTHPWNNFWHNVIFDIIQQIFNGRMDFSYNSFLVLSLFNLKSSYQFMTDIVISDEKGTDVSRFSPVIRDPNFDFKITTDFILRGYQDSYKFYELRKMNLGYMGHIVLIAEEVVKFSKLYKVELISPDIQVILQTEEWQYYSEEVLNETRMMYSKILGGGSYIDDGNGNIIPQLPDNTTVLTPNGDASNNNEILDSDTGSSNGTSGGGQLINVESLEEQLSLSTESDLHNKLREMLINRAQEDVDNKNTENGVFILGPPEDKNSNSNINNTNHNSNNSNNNDNNDNNDNDNDNTRNYNEDADNDNDYDHE
- Ratio (Deletedscore / WTscore) (bait LSB3): 1.731

B9: YLR196W_2 (protein, UniProt P21304 1-576, looked up)
Periodic tryptophan protein 1: MISATNWVPRGFSSEFPEKYVLDDEEVERINQLAQLNLDDAKATLEEAEGESGVEDDAATGSSNKLKDQLDIDDDLKEYNLEEYDDEEIADNEGGKDVSMFPGLSNDSDVKFHEGEKGEDPYISLPNQEDSQEEKQELQVYPSDNLVLAARTEDDVSYLDIYVYDDGAGFHSSDIPVEEGDEADPDVARGLVRDPALYVHHDLMLPAFPLCVEWLDYKVGSNSEEAANYAAIGTFDPQIEIWNLDCVDKAFPDMILGEPLDNSMVSLKSKKKKKKSKTGHITTHHTDAVLSMAHNKYFRSVLASTSADHTVKLWDLNSGNAARSLASIHSNKNVSSSEWHMLNGSILLTGGYDSRVALTDVRISDESQMSKYWSAMAGEEIETVTFASENIILCGTDSGNVYSFDIRNNENRKPVWTLKAHDAGISTLCSNKFIPGMMSTGAMGEKTVKLWKFPLDDATNTKGPSMVLSRDFDVGNVLTSSFAPDIEVAGTMVIGGVNKVLKLWDVFTNRSVRKSFKSELENVQARAKEEAQKIGKSSRIARKYTSNDNPDTVITIDDQGEDEEEREGGDEHDDMA
- Ratio (Deletedscore / WTscore) (bait LSB3): 1.184

B10: YLR330W_2 (protein, UniProt Q12114 1-671, looked up)
Chitin biosynthesis protein …: MSSVDVLLTVGKLDASLALLTTQDHHVIEFPTVLLPENVKAGSIIKMQVSQNLEEEKKQRNHFKSIQAKILEKYGTHKPESPVLKIVNVTQTSCVLAWDPLKLGSAKLKSLILYRKGIRSMVIPNPFKVTTTKISGLSVDTPYEFQLKLITTSGTLWSEKVILRTHKMTDMSGITVCLGPLDPLKEISDLQISQCLSHIGARPLQRHVAIDTTHFVCNDLDNEESNEELIRAKHNNIPIVRPEWVRACEVEKRIVGVRGFYLDADQSILKNYTFPPVNEEELSYSKENEPVAEVADENKMPEDTTDVEQVASPNDNESNPSEAKEQGEKSGHETAPVSPVEDPLHASTALENETTIETVNPSVRSLKSEPVGTPNIEENKADSSAEAVVEEPNEAVAESSPNEEATGQKSEDTDTHSNEQADNGFVQTEEVAENNITTESAGENNEPADDAAMEFGRPEAEIETPEVNESIEDANEPAEDSNEPVEDSNKPVKDSNKPVEDSNKPVEDSNKPVEDSNKPVEDANEPVEDTSEPVEDAGEPVQETNEFTTDIASPRHQEEDIELEAEPKDATESVAVEPSNEDVKPEEKGSEAEDDINNVSKEAASGESTTHQKTEASASLESSAVTEEQETTEAEVNTDDVLSTKEAKKNTGNSNSNKKKNKKNKKKGKKK
- Ratio (Deletedscore / WTscore) (bait LSB3): 1.34
